According to publication PMC4446444, “Stable complex formation of CENP-B with the CENP-A nucleosome”:

T1: CENP-B DBD (Homo sapiens, UniProt P07199 1-129)
T1 sequence: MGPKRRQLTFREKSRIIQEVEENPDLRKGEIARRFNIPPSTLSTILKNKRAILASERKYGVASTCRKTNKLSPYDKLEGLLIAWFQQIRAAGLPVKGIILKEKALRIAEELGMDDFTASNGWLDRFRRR

B1: 166-bp alpha-satellite DNA, proximal CENP-B box (naked) (dsDNA)
DNA 1: ATCTATTTGGACCGCATTGAGGCCTTCGTTGGAAACGGGATTTCTTCATTTCATGCTAGACAGAAGAATTCTCAGTAACTTCTTTGTGCTGTGTGTATTCAACTCACAGAGTGGAACGTCCCTTTGCACAGAGCAGATTTGAAACACTCTTTTTGTAGTCGACGAT
DNA 2: ATCGTCGACTACAAAAAGAGTGTTTCAAATCTGCTCTGTGCAAAGGGACGTTCCACTCTGTGAGTTGAATACACACAGCACAAAGAAGTTACTGAGAATTCTTCTGTCTAGCATGAAATGAAGAAATCCCGTTTCCAACGAAGGCCTCAATGCGGTCCAAATAGAT

Legend:
[1] = target: His6-tagged CENP-B DBD complexed with a 21 base-pair DNA (human) (UniProt P07199); experiment: pull-down; His6-tagged CENP-B DBD with 21 base-pair CENP-B box DNA (50 nM) held on Ni-NTA agarose beads; histone complex 50 nM; 20 mM Tris-HCl pH 8.0, 300 mM NaCl, 60 mM imidazole, 0.3% Tween-20, BSA, 4 °C 60 min; washes with 500 mM NaCl, 30 mM imidazole; 16% SDS-PAGE with Coomassie
[2] = target: T1, CENP-B DBD; experiment: competition; naked competitor; DBD-DNA complex increases with DNA amount; Buffer of the EMSA and competition assays not in material (6% native PAGE, ethidium bromide); pull-down: 20 mM Tris-HCl pH 8.0, 300 mM NaCl, 60 mM imidazole, 0.3% Tween-20, 0.01 ug/ul BSA, 4 C, 60 min; conditions: protein: recombinant; blunt

Molecule | percent of H4 in the CENP-B-bound fraction against the CENP-A-H4 complex [1] | binding result [2]
H3.1^CATD-H4 complex (from UniProt P68431 1-75; P49450 75-114; P68431 114-136; P62805 1-103) | 4% | –
B1 | – | binds
